Assays:
RPMI 8226 tumor = test: RPMI 8226 human myeloma tumor xenograft; type: in vivo, CB17 SCID mice
Description: Nude mice (CB17 SCID, aged 4-5 weeks, weight 18-22 gm, female mice obtained from Harlan) were injected sc with RPMI 8226 cells harvested from tissue culture (˜1×10^7 cells/mouse). When tumors grew to approximately 100 mm^3 in size, animals were pair-matched by tumor size into treatment and control groups (10 mice per group). Initial dosing began Day 1 following pair-matching. Animals in all groups were dosed by weight (0.01 ml per gram; 10 ml/kg). […] Bortezomib was administered by intravenous injection via tail vein once every three days for six treatments (Q3D×6).
Individual and group mean tumor volumes±SEM are recorded twice weekly until study completion beginning Day 1. Final mean tumor volume±SEM for each group are reported at study completion; animals experiencing partial or complete tumor regressions or animals experiencing technical or drug-related deaths are censored from these calculations.

[1] = LT1009 formulation stability study (visual inspection, syringeability, SE-HPLC); type: physicochemical; details: independent of antibody concentration
Description: Preferred formulations should not only stabilize the antibody, but also be tolerated by patients when injected. […] Additionally, three different storage temperatures (5° C., 25° C., and 40° C.) were also examined (representing actual, accelerated, and temperature stress conditions, respectively). Stability was assessed using representative samples taken from the various formulations at five different time points: at study initiation and after two weeks, 1 month, 2 months, and 3 months. At each time point, testing involved visual inspection, syringeability (by pulling through a 30-gauge needle), and size exclusion high performance liquid chromatography (SE-HPLC). Circular dichroism (CD) spectroscopy was also used to assess protein stability since above a certain temperature, proteins undergo denaturation, followed by some degree of aggregate formation. The observed transition is referred to as an apparent denaturation or “melting” temperature (Tm) and indicate the relative stability of a protein. […]
For a given time point, aliquots from each sample were subjected to a series of standard analyses, including visual inspection, syringeability, pH, SDS-PAGE (under both reducing and non-reducing conditions), SE-HPLC, and IEF. Protein concentrations were determined by UV spectroscopy (OD-280). […]

[2] = Competitive ELISA for specificity: lipid competitors against anti-S1P mAb binding to coated S1P; details: for recognition of ceramide-1-phosphate (C1P): competitor C1P; for cross-reactivity to lysophosphatidic acid (LPA): competitor LPA
Description: As described in Example 1, below, bound antibody was detected by a second antibody, specific for the mouse or human IgG, conjugated with HRP. Chromogenic reactions were measured and reported as optical density (OD). The concentration of lipids used for the competition is indicated on the X-axis.
For cross reactivity, a competitive ELISA was performed as described above, except for the following alterations. The primary incubation consisted of the competitor (S1P, SPH, LPA, etc.) and a biotin-conjugated anti-S1P mAb. Biotinylation of the purified monoclonal antibody was performed using the EZ-Link Sulfo-NHS-Biotinylation kit (Pierce). […] The competitor was prepared as follows: lipid stocks were sonicated and dried under argon before reconstitution in DPBS/BSA [1 mg/ml fatty acid free BSA (Calbiochem) in DPBS (Invitrogen 14040-133)]. Purified anti-S1P mAb was diluted as necessary in PBS/0.5% Triton X-100. Competitor and antibody solutions were mixed together so to generate 3 parts competitor to 1 part antibody. A HRP-conjugated streptavidin secondary antibody (Jackson Immunoresearch) was used to generate signal.
i. Specificity. The humanized variants were tested for specificity in a competitive ELISA assay (FIG. 1) against S1P and several other biolipids.

HUVECs = test: HUVEC tube formation on GF-reduced Matrigel; type: cell-based, human; details: co-incubated with S1P
Description: FIG. 5 has two panels, A and B. In panel A, S1P is shown to promote neovascularization through induction of HUVECs tube formation and migration, which is reduced by SPHINGOMAB. […] The number of cells that migrated to the Matrigel membrane were counted in five independent fields.
Experiments were performed as described by Visentin et al. (Cancer Cell 2006 March; 9(3):225-38).

[3] = 28-day toxicity and toxicokinetic study of LT1002 in mice; type: in vivo; details: 28 days
Description: The purpose of this study was to determine the toxicity and toxicokinetic profile of the murine anti-S1P monoclonal antibody, LT1002, following daily administration to C57/BL6 mice. The study was conducted by an independent contract laboratory organization, LAB Research, Inc. The LT1002 dosing solutions were administered for 28 consecutive days to animals in each group by bolus intravenous injection via the tail vein (Days 1-14) and then by bolus intraperitoneal injection (Days 15-28), over a period of approximately 0.5-1.0 minute. The treated group animals were dosed with LT1002 at 30, 75 or 200 mg/kg (n=6 per group) and compared to animals treated with PBS as a saline (vehicle) control group.
During the study, animals were monitored for effects on mortality, clinical condition, body weight and food consumption. Blood samples were collected from a subgroup of animals at necropsy for assessment of hematology, coagulation and clinical chemistry. Study animals were euthanized and subjected to a necropsy examination. Selected organs were weighed and a full list of tissues was retained. A histopathology examination was performed on the full tissue list from all control and high dose animals (200 mg/kg/day) and all abnormalities, while target organs were examined on lower dose groups. Blood samples were collected from the toxicokinetic animals (3 animals/sex/group/time point) on Days 1, 14 and 28 and the animals were euthanized and discarded without examination.

[4] = LT1009 50 mg/kg IP Q3D to end, Bortezomib iv Q3D×6

LT1009: humanized anti-S1P IgG1/kappa mAb with Cys to Ala in HCDR2, light chain with 5 backmutations; SEQ ID NO: 31/32
% Reduction compared to Vehicle-Treated Mice (RPMI 8226 tumor; LT1009 25 mg/kg IP Q3D to end): 11%
Final Tumor Weights (RPMI 8226 tumor; LT1009 25 mg/kg IP Q3D to end): 1860 mg
% Reduction compared to Vehicle-Treated Mice (RPMI 8226 tumor; [4]): 5%
Final Tumor Weights (RPMI 8226 tumor; [4]): 1978 mg
conditions of greatest stability (SE-HPLC) [1]: most stable around pH 6 and 450 mM NaCl

B1: LT1002: murine anti-S1P monoclonal antibody, IgG1 kappa, from hybridoma clone 306D326.26 (antibody, listed as Mus sp., V domains shown)
VH: QAHLQQSDAELVKPGASVKISCKVSGFIFIDHTIHWMKQRPEQGLEWIGCISPRHDITKYNEMFRGKATLTADKSSTTAYIQVNSLTFEDSAVYFCARGGFYGSTIWFDFWGQGTTLTVS
VL: ETTVTQSPASLSMAIGEKVTIRCITTTDIDDDMNWFQQKPGEPPNLLISEGNILRPGVPSRFSSSGYGTDFLFTIENMLSEDVADYYCLQSDNLPFTFGSGTKLEIK
Specificity (ELISA) [2]: High
recognition of ceramide-1-phosphate (C1P) [2]: no antibody binding was observed
recognition of ceramide-1-phosphate (C1P) ([2]; listed as SPHINGOMAB): did not recognize
cross-reactivity with dihydrosphingosine-1-phosphate (DH-S1P) ([2]; competitor DH-S1P): did cross react
recognition of dihydrosphingosine (DH-SPH) ([2]; competitor DH-SPH): did not recognize
cross-reactivity to lysophosphatidic acid (LPA) [2]: no binding
cross-reactivity to lysophosphatidic acid (LPA) ([2]; listed as SPHINGOMAB): no cross-reactivity
recognition of phosphatidyl ethanolamine (PE) ([2]; competitor PE): did not recognize
recognition of phosphatidyl serine (PS) ([2]; competitor PS): did not recognize
recognition of sphingomyelin (SM) ([2]; competitor SM): did not recognize
cross-reactivity with sphingosylphosphoryl choline (SPC) ([2]; competitor SPC): somewhat reduced
cross-reactivity to sphingosine (SPH) ([2]; competitor SPH): no cross-reactivity
formation of capillary-like structures (HUVECs): failed to form capillary-like structures
average lymphocyte counts (+/-SD) ([3]; 30 mg/kg daily): 0.856+/−0.426 10^9 cells/L
average lymphocyte counts (+/-SD) ([3]; 75 mg/kg daily): 0.902+/−0.269 10^9 cells/L
average lymphocyte counts (+/-SD) ([3]; 200 mg/kg daily): 0.638+/−0.262 10^9 cells/L

Source: patent US8026342B2, “Compositions and methods for binding sphingosine-1-phosphate” (Lpath, Inc., priority 2006, dated 2011)
